Experimental data published in patent publication US20110086026A1 (ROCHE PALO ALTO, published 2011).

T1: hIL-13Rα1:hFc chimeric protein (R&D Systems, UK) (human, UniProt P78552 22-343)
T1 construct: extracellular domain; Bought; also called chimeric hIL-13Rα1:hFc; not shown: human Fc (hFc) of the bought chimera
T1 sequence (looked up): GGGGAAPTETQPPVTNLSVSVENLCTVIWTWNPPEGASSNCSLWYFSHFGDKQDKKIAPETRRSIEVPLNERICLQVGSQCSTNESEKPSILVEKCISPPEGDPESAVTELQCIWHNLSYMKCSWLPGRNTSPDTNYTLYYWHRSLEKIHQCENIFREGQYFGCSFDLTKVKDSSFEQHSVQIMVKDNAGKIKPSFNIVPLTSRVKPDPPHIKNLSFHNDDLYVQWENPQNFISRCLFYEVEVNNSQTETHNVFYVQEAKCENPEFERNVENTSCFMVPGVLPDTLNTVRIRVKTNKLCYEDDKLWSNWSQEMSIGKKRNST

T2: hIL-4Rα:hFc chimeric protein (R&D Systems, UK) (human, UniProt P24394 26-232)
T2 construct: Bought; not shown: human Fc (hFc) of the bought chimera
T2 sequence (looked up): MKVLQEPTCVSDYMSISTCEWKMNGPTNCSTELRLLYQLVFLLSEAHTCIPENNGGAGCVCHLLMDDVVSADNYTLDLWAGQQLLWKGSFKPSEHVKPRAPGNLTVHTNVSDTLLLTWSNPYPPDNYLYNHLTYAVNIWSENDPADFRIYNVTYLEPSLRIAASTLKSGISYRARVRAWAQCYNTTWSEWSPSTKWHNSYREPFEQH

T3: extracellular domain of hIL-13Rα1 cleaved from hIL-13Rα1:hFc chimeric protein (human, UniProt P78552 22-343)
T3 construct: extracellular domain; also called Cleaved hIL-13Rα1 molecules (MW 40 kDa)
T3 sequence (looked up): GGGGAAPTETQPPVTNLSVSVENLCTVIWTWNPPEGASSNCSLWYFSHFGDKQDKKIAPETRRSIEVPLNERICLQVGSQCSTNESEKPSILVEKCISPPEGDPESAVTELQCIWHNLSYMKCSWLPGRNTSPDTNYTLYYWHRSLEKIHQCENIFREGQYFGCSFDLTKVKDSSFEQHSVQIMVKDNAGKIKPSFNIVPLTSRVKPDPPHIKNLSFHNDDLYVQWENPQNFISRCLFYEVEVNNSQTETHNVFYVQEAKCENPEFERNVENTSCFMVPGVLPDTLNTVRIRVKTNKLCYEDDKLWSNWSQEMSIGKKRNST


What was measured:
[1] = target: T1, hIL-13Rα1:hFc chimeric protein (R&D …); assay: SPR Biacore 3000, HuMab captured by anti-hFcγ, hIL-13Rα1:hFc as analyte, 1:1 Langmuir model
Experimental: For interaction analysis a Biacore 3000 instrument was used. As running and reaction buffer, HBS-P (10 mM HEPES, 150 mM NaCl, 0.005% polysurfactant P, pH 7.4) at 25° C. was used. Capturing molecules (goat anti-human-IgG, Fcγ specifc) were amine-coupled at a concentration of 20 μg/ml at a flow rate of 5 μl/min for 20 minutes. HuMabs were injected at a concentration of 1 μg/ml at a flow rate of 10 μl/min for 1 minute. Blocking of the free goat anti human IgG, Fcγ was achieved by injecting human gamma globulin at 500 nM and 30 μl/min for 3 minutes. Analyte (hIL-13Rα1:hFc chimeric protein) was injected for two minutes at five concentrations between 5.63 nM and 90 nM and washed with HBS-P for five minutes. Regeneration of the surface was accomplished by two injections of 100 mM HCl for 1 min each. The chip, assay format and sequence of injections and kinetic data correspond to the description in table 2. Negative control data (e.g. buffer curves) were subtracted from sample curves for correction of system intrinsic baseline drift and for noise signal reduction. BiaEvaluation version 4.01 was used for analysis of sensorgrams and for calculation of affinity data. Kinetic data were calculated by fitting kinetic data to a 1:1 Langmuir binding model (Table 2).

[2] = target: T2, hIL-4Rα:hFc chimeric protein (R&D …); assay: ELISA, immobilized hIL-4Rα:hFc, detection with anti-human kappa-POD, OD 405
Experimental: Chimeric proteins hIL-13Rα2:hFc and hIL-4Rα:hFc (R&D Systems, UK) were dissolved in PBS (1 μg/ml) and allowed to adsorb to microtiter plates (NUNC Maxisorb) by incubation over night at 4° C. After washing the plates with washing buffer (WB=0.9% NaCl; 0.1% Tween® 20) unspecific binding sites were blocked by addition of 100 μl incubation buffer (IB=PBS with 1% crotein C and 0.1% Tween® 20) and incubation for 30 min at room-temperature (RT). Then serially diluted HuMab and control antibodies (100 μl/well; dilutions in IB) were added and incubated for 1 hour at RT. The plates were again washed and bound antibody was detected by incubation with peroxidase conjugated rabbit anti-human kappa (DAKO, Denmark) in a final dilution of 1:500 in IB. After incubation for 1 h at RT and a subsequent washing step, the plates were developed with ready-to-use ABTS® solution (Roche Diagnostics GmbH, DE) at RT in the dark. Absorbance was measured at 405 nm after absorbance of the highest concentration reached a sufficient OD.

[3] = target: T3, extracellular domain of hIL-13Rα1 …; assay: SPR Biacore 3000, C1 chip, HuMab captured by anti-hFcγ, cleaved hIL-13Rα1 as analyte, 1:1 Langmuir model
Experimental: For interaction analysis, a Biacore 3000 instrument was used. Running and reaction buffer was HBS-P (10 mM HEPES, 150 mM NaCl, 0.005% polysurfactant P, pH 7.4) at 25° C. Capturing antibody molecules (anti-hFcγ) were amine-coupled at a concentration of 100 μg/ml at a flow rate of 5 μl/min for 20 minutes. HuMabs were injected at concentrations of 10 μg/ml at a flow rate of 10 μl/min for 30 seconds. Cleaved hIL-13Rα1 molecules (MW 40 kDa) were injected for 200 seconds at seven concentrations between 1.56 nM and 100 nM and washed with HBS-P for five minutes. Regeneration of the surface was accomplished by two injections of 100 mM HCl for 1 min each at a flow rate of […]. The chip, assay format and sequence of injections and kinetic data correspond to the description in the following Table 3. Kinetic data were calculated by fitting kinetic data to a 1:1 Langmuir binding model.

[4] = target: T1, hIL-13Rα1:hFc chimeric protein (R&D …); assay: competition ELISA: hIL-13Rα1:hFc coated, antibody first, then IL-13 plus IL-4Rα; bound IL-13 detected with biotinylated anti-IL-13
Experimental: Microtiter plates were coated with 100 μl hIL-13Rα1:hFc chimeric protein (R&D Systems, UK) in PBS at 3 μg/ml at 4° C. overnight on a shaker. After washing the plates with WB, serially diluted HuMab and control antibodies (100 μl/well; dilutions in IB) were added and incubated for 30 min at RT. The plates were again washed, and then a mixture of IL-13 (R&D Systems, UK; 0.5 μg/ml; dilution with IB) and IL-4Rα (R&D Systems, UK; 0.75 μg/ml; dilution with IB) were added and incubated for 1 h at RT. After washing the plates 100 μl biotinylated anti IL-13 antibody (BAF213; R&D Systems, UK) in a concentration of 0.4 μg/ml was added and incubated for 1 h at RT. After washing the plates, bound IL-13 was detected by peroxidase-coupled streptavidin (Roche Diagnostics GmbH, DE) in a dilution of 1:5000 in IB (incubation period 1 h at RT). Finally, plates were washed and developed with ready-to-use ABTS® solution (Roche Diagnostics GmbH, DE) at room temperature (RT) in the dark. Absorbance was measured at 405 nm after 45 to 60 minutes.

Binder | Kd [1] [nM] | koff [1] [s⁻¹] | kon [1] [M⁻¹ s⁻¹] | binding result [2] | Kd [3] [nM] | koff [3] [s⁻¹] | kon [3] [M⁻¹ s⁻¹] | IC50 (read off the curve) [4] [nM]
HuMab LC5002-005 (antibody, V domains shown, Only the variable domains are tied to this antibody; also called hu-MAB<h-IL-13Ralpha>LC.5002-005 (DSM ACC2711)) VH: EVQVLDSGGGLVQPGGSLRLSCTASGFTFRLYTMSWVRQTPGRGLEWVSGISGSGLSTYFADSVKGRFTISRDNSKNTVYLQMNSLRAEDTAVYYCAKEGDWIYFDSWGQGTLVIVSS VL: DIQMTQSPSSLSASVGDRVTITCRASQGISSWLAWYQQKPEKAPKSLIYAASSLQSGVPSRFSGSGSGTDFTLTISSLQPEDFATYYCQQYNSHPPTFGQGTKLEIK | 0.018 | 3.12e-06 | 173000 | no binding (tested: 3.3 nM) | 0.22 | 0.0003 | 1.4e+06 | 
HuMab LC5002-002 (antibody, human IgG1, V domains shown, Human IgG1 kappa from a HuMab mouse hybridoma; Only the variable domains are tied to this antibody; also called hu-MAB<h-IL-13R alpha>LC.5002-002 (DSM ACC2709)) VH: EVQLLESGGGLVQPGGSLRLSCAASGFTFNIYAMNWVRQAPGKGLEWVSVISGRGITTYYADSVKGRFTISRDNSKNTLYLQMNSLRADDTAVYYCAKGSSSWTDFDYWGQGTLVTVSS VL: DIQMTQSPSSLSASVGDRVTITCRASQGISRWVAWYQQKPEKAPKSLIYAASSLQSGVPSRFSGSGSGTDFTLTISSLQPEDFATYYCQQYNSYPWTFGQGTKVEIK |  |  |  |  | 0.62 | 0.00065 | 1.1e+06 | 1 to 2.5
HuMab LC5002-003 (antibody, V domains shown, Human IgG1 kappa from a HuMab mouse hybridoma; Only the variable domains are tied to this antibody; also called LC50002-003; hu-MAB<h-IL-13Ralpha>LC.5002-003 (DSM ACC2710)) VH: EVQLLESGGDLIQPGGSLRLSCAASGFTFNIYAMNWVRQAPGKGLEWVSVISGRGITTYYADSVKGRFTISRDNSKNTLYLQMDSLRAEDTAVYYCAKGSSYWTDFDYWGQGTLVTVSS VL: DIQMTQSPSSLSASVGDRVTITCRASQGISSWLAWYQQKPEKAPKSLIYAASSLQSGVPSRFSGSGSGTDFTLTISSLQPEDFATYYCQQYNSYPWTFGQGTKVEIK | < 0.0065 | 1.4e-06 | 210000 | no binding (tested: 3.3 nM) | 0.39 | 0.00051 | 1.3e+06 | ~2
HuMab LC5002-007 (antibody, human IgG1, V domains shown, Human IgG1 kappa from a HuMab mouse hybridoma; Only the variable domains are tied to this antibody; also called hu-MAB<h-IL-13R alpha>LC.5002-007 (DSM ACC2712)) VH: QVQLVQSGAEVKKPGSSVKVSCKVSGGTFSSYAFSWVRQAPGQGLEWMGRIIPILGRTNYAQKFQGRVTITADKSTSTAYMEVSSLRSEDTAVYYCAREGETLDYFYYGMDVWGQGTTVTVSS VL: EIVLTQSPGTLSLSPGERATLSCRASQSVSSSYLAWYQQKPGQAPRLLIYGASSRAIGIPDRFSGSGSGTDFTLTISRLEPEDFAVYYCQHYGSSLTFGGGTKVEIK | < 0.0084 | 1e-06 | 119000 |  | 4.4 | 0.00083 | 190000 | ~1
